The values below come from the RNAGym collection of RNA variant scans (doi:10.7554/elife.90254).

The labels stand for the following.
B1: LINE1-mini (parent)
chain: GGCAGAGCUCAACACAGCGUGGCAAAGUGGCUGUGGCUAGACUGCC

This series covers variants of B1. Put plainly: self-cleavage, relative activity (ratio to wild type); higher = more cleavage; in vitro, sequencing; the parent is a self-cleaving ribozyme.
Turning to C15A U38C, the self-cleavage was determined as 0.07.
The value for C15A U38G was 0.07; that for C15A U38A was 0.05.
The value for A14U G40C was 0.08; that for A14U G40U was 0.11; that for A14U G40A was 0.05.
The value for C15G C18G was 0.05.
On to C15G C18A, for which the self-cleavage is 0.09.
In the case of C15G C18U, the self-cleavage was found to be 0.04.
As for A14U A16C, the self-cleavage was 0.1.
The value for A14U A16U was 0.1; that for A14U A16G was 0.09.
Next, A14G U43C: 0.06.
Turning to A14G U43A, the self-cleavage worked out at 0.05.
A14G U43G: the self-cleavage amounted to 0.11.
On to C15A A39G, for which the self-cleavage was 0.08.
As for C15A A39C, the self-cleavage was found to be 0.06.
Next, C15A A39U: 0.06; C15G A26C: 0.04.
The value for C15G A26U was 0.07; that for C15G A26G was 0.03.
The value for A14U G35U was 0.12; that for A14U G35A was 0.16.
For A14U G35C, the self-cleavage worked out at 0.11.
Next, C15G U34C: 0.03; C15G U34G: 0.02; C15G U34A: 0.52.
The value for C15A G36A was 0.14.
Next, C15A G36C: 0.04; C15A G36U: 0.06.
As to A14U G33U, the self-cleavage was 0.12.
The value for A14U G33A was 0.08; that for A14U G33C was 0.05.
Next, C15G U20A: 0.09; C15G U20G: 0.03.
The value for C15G U20C was 0.03; that for C15A G27U was 0.09; that for C15A G27C was 0.1.
For the variant C15A G27A, the self-cleavage was found to be 0.15.
The value for C15G A25C was 0.02; that for C15G A25G was 0.06.
The value for C15G A25U was 0.04.
The value for A14U C31A was 0.06; that for A14U C31G was 0.04.
For A14U C31U, the self-cleavage is 0.04.
For the variant C15A A24U, the self-cleavage worked out at 0.12.
For C15A A24G, the self-cleavage worked out at 0.07.
For the variant C15A A24C, the self-cleavage worked out at 0.04.
Next, C15A C23G: 0.05; C15A C23A: 0.18; C15A C23U: 0.14.
The value for A14U G22A was 0.35; that for A14U G22C was 0.27; that for A14U G22U was 0.87.
As to C15A U28G, the self-cleavage turned out to be 0.06.
The value for C15A U28A was 0.1; that for C15A U28C was 0.12; that for C15G G21C was 0.17.
Consider C15G G21U, for which the self-cleavage worked out at 0.07.
The value for C15G G21A was 0.08; that for C15A G29C was 0.18; that for C15A G29U was 0.12.
Next, C15A G29A: 0.16.
Take C15A G17A: the self-cleavage was 0.14.
The value for C15A G17C was 0.04; that for C15A G17U was 0.09; that for A14G U34C was 0.61.
The value for A14G U34G was 0.3.
On to A14G U34A, for which the self-cleavage is 0.16.
Next, A14G G36A: 0.26; A14G G36C: 0.07.
Next, A14G G36U: 0.12; C15G G19C: 0.13.
Next, C15G G19U: 0.03; C15G G19A: 0.07; C15G A24C: 0.02.
Regarding C15G A24U, the self-cleavage came out at 0.02.
The value for C15G A24G was 0.03; that for A14U A26C was 0.6.
The value for A14U A26U was 0.53.
Next, A14U A26G: 0.34.
As for C15G G22C, the self-cleavage turned out to be 0.03.
Next, C15G G22U: 0.3; C15G G22A: 0.15.
Next, A14U C45G: 0.07.
The value for A14U C45U was 0.36.
In the case of A14U C45A, the self-cleavage amounted to 0.07.
The value for A14G G22A was 0.34.
Next, A14G G22U: 0.98; A14G G22C: 0.31; C15G G35U: 0.03.
The value for C15G G35C was 0.13; that for C15G G35A was 0.04; that for A14G U38C was 0.15.
With A14G U38A, the self-cleavage is 0.52.
The value for A14G U38G was 0.01; that for C15G U32G was 0.04.
As for C15G U32A, the self-cleavage turned out to be 0.05.
Next, C15G U32C: 0.03; C15A C42U: 0.05; C15A C42A: 0.06.
The value for C15A C42G was 0.04; that for C15G G30C was 0.08.
Next, C15G G30U: 0.03; C15G G30A: 0.07.
Take C15A U34A: the self-cleavage turned out to be 0.59.
The value for C15A U34C was 0.06; that for C15A U34G was 0.05; that for C15G C42A was 0.04.
Take C15G C42G: the self-cleavage turned out to be 0.1.
For the variant C15G C42U, the self-cleavage was found to be 0.04.
For C15G G36A, the self-cleavage is 0.06.
Regarding C15G G36U, the self-cleavage stood at 0.04.
The value for C15G G36C was 0.03; that for C15A A41C was 0.15; that for C15A A41G was 0.06.
On to C15A A41U, for which the self-cleavage came to 0.05.
C15G G33U: the self-cleavage is 0.36.
The value for C15G G33A was 0.03.
In the case of C15G G33C, the self-cleavage amounted to 0.25.
Next, C15A C45A: 0.08.
Next, C15A C45U: 0.12; C15A C45G: 0.05; C15A G33U: 1.81.
The value for C15A G33C was 0.06; that for C15A G33A was 0.11.
Take C15A C46A: the self-cleavage is 0.09.
C15A C46G: the self-cleavage came out at 0.05.
Next, C15A C46U: 0.12; A14G G44U: 0.19; A14G G44C: 0.19.
Next, A14G G44A: 0.22.
A14U C42A: the self-cleavage turned out to be 0.21.
Consider A14U C42U, for which the self-cleavage was 0.2.
Next, A14U C42G: 0.1; C15G C37U: 0.04.
Next, C15G C37A: 0.06; C15G C37G: 0.02.
Take C15A U43A: the self-cleavage was 0.07.
For C15A U43C, the self-cleavage was 0.04.
Next, C15A U43G: 0.07; A14U C23U: 0.31.
Next, A14U C23G: 0.15; A14U C23A: 0.65; A14G G17U: 0.09.
As for A14U C46G, the self-cleavage was 0.19.
For A14U C46U, the self-cleavage came out at 0.28.
Next, A14U C46A: 0.4; C15G G44U: 0.03.
Next, C15G G44A: 0.03; C15G G44C: 0.04; C15A U20C: 0.04.
Next, C15A U20A: 0.11.
On to C15A U20G, for which the self-cleavage is 0.08.
Next, C15G: 0.07.
Next, C15A: 0.1; A14U C15G: 0.04; A14U C15U: 0.18.
The value for A14U C15A was 0.16.
In the case of C15G A39G, the self-cleavage came to 0.03.
The value for C15G A39C was 0.02; that for C15G A39U was 0.04; that for C15A G22A was 0.28.
Next, C15A G22C: 0.06; C15A G22U: 0.08; C15G G40A: 0.08.
Next, C15G G40C: 0.03.
